The results in this text go back to paper PMC6242907, “Molecular basis of maintaining an oxidizing environment under anaerobiosis by soluble fumarate reductase” (Nature Communications, 2018).

Holding throughout (assay): purified protein
What all share (type): biochemical, Saccharomyces cerevisiae

Substrate in data set [1]: Cc1cc2c(cc1C)N(C[C@H](O)[C@H](O)[C@H](O)COP(=O)(O)O)c1[nH]c(=O)[nH]c(=O)c1N2
The note with it: printed as FMN, reduced in situ by excess sodium dithionite; fumarate as acceptor, anaerobic, PBS, 1 mM EDTA.

Substrate in data set [2]: Cc1cc2c(cc1C)N(C[C@H](O)[C@H](O)[C@H](O)COP(=O)(O)OP(=O)(O)OC[C@H]1O[C@@H](n3cnc4c(N)ncnc43)[C@H](O)[C@@H]1O)c1[nH]c(=O)[nH]c(=O)c1N2
Conditions: printed as FAD, reduced in situ by excess sodium dithionite; fumarate as acceptor, anaerobic, PBS, 1 mM EDTA.

Substrate in data set [3]: Cc1cc2c(cc1C)N(C[C@H](O)[C@H](O)[C@H](O)CO)c1[nH]c(=O)[nH]c(=O)c1N2
The note with it: printed as riboflavin, reduced in situ by excess sodium dithionite; fumarate as acceptor, anaerobic, PBS, 1 mM EDTA.

B1: Osm1 (Saccharomyces cerevisiae S288C) (protein)
chain: SMKQPVVVIGSGLAGLTTSNRLISKYRIPVVLLDKAASIGGNSIKASSGINGAHTDTQQNLKVMDTPELFLKDTLHSAKGRGVPSLMDKLTKESKSAIRWLQTEFDLKLDLLAQLGGHSVPRTHRSSGKLPPGFEIVQALSKKLKDISSKDSNLVQIMLNSEVVDIELDNQGHVTGVVYMDENGNRKIMKSHHVVFCSGGFGYSKEMLKEYSPNLIHLPTTNGKQTTGDGQKILSKLGAELIDMDQVQVHPTGFIDPNDRENNWKFLAAEALRGLGGILLHPTTGRRFTNELSTRDTVTMEIQSKCPKNDNRALLVMSDKVYENYTNNINFYMSKNLIKKVSINDLIRQYDLQTTASELVTELKSYSDVNTKDTFDRPLIINAFDKDISTESTVYVGEVTPVVHFTMGGVKINEKSQVIKKNSESVLSNGIFAAGEVSGGVHGANRLGGSSLLECVVFGKTAADNIAKLY
notes: residues 32-501, N-terminal His6 tag and thrombin site in pET28a, E. coli BL21(DE3); tag removed by trypsin for crystals
For the protein B1, the Km in “purified protein [1]” is 5.847 (±2.0065) µM; in “purified protein [2]”, 2.858 µM; in the data set “purified protein [3]”, 9.3745 (±4.991) µM.
